From the supplement of paper PMC7125110
± gives the standard error. For some of these results: Fewer inactive variants are shown than the library holds.

B1: glmS ribozyme (parent)
chain: AUAAAAGCGCCAGAACUACAGAAAUGUAGUUGACGAGGAGGAGGUUUAUCGAAUUUUCGGCGGAUGCCUCCAAA

How the values were obtained:
Settings in all cases: with glucosamine-6-phosphate
[1] = variants of: B1; assay: kcat; higher = faster cleavage; RNA array
Outline: (§1)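 On sequenced MiSeq chips, barcoded ribozyme variants were made in situ by E. coli RNA polymerase and followed at 37 °C through a hybridised Cy3 probe. Glucosamine-6-phosphate was flowed in at 40 μM to 10 mM in HEPES/KCl/Mg(OAc)2 buffer. Exponential fits to normalised per-tile medians gave kobs, and weighted Michaelis–Menten fits gave kcat and KM.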

[2] = variants of: B1; assay: self-cleavage kobs at 160 uM GlcN6P; higher = faster cleavage; RNA array
Outline: as §1

[3] = variants of: B1; assay: self-cleavage kobs at 640 uM GlcN6P; higher = faster cleavage; RNA array
Outline: as §1

[4] = variants of: B1; assay: self-cleavage kobs at 2500 uM GlcN6P; higher = faster cleavage; RNA array
Outline: as §1

[5] = variants of: B1; assay: KM; higher = weaker cofactor use; RNA array
Outline: as §1

[6] = variants of: B1; assay: self-cleavage kobs at 10000 uM GlcN6P; higher = faster cleavage; RNA array
Outline: as §1

[7] = variants of: B1; assay: self-cleavage kobs at 40 uM GlcN6P; higher = faster cleavage; RNA array
Outline: as §1

| Variant | kcat [1] [s⁻¹] | self-cleavage kobs at 160 uM GlcN6P [2] [s⁻¹] | self-cleavage kobs at 640 uM GlcN6P [3] [s⁻¹] | self-cleavage kobs at 2500 uM GlcN6P [4] [s⁻¹] | KM [5] [µM] | self-cleavage kobs at 10000 uM GlcN6P [6] [s⁻¹] | self-cleavage kobs at 40 uM GlcN6P [7] [s⁻¹] |
| --- | --- | --- | --- | --- | --- | --- | --- |
| U57A U69G | 4.58e-05 ± 6.6e-06 | 3.35e-05 ± 1.6e-05 | 5.15e-05 ± 1.3e-05 | 3.88e-05 ± 1.3e-05 |  |  |  |
| C11A A14C | 6.31e-05 ± 3.4e-06 |  |  | 3.05e-05 ± 1.3e-05 | 2820 ± 410 | 4.9e-05 ± 1.5e-05 |  |
| U31A U57G | 4.33e-05 ± 3.3e-06 |  |  |  | 2970 ± 780 | 3.33e-05 ± 1.1e-05 |  |
| G37A A53C C71U | 9.8e-05 ± 3.3e-06 |  | 3.79e-05 ± 1.4e-05 | 6.98e-05 ± 1.5e-05 | 1010 ± 85 |  |  |
| U55G G66U | 0.00299 ± 0.00092 | 8.99e-05 ± 1.6e-05 | 0.00054 ± 0.0001 | 0.00126 ± 0.00021 | 4240 ± 1800 | 0.00195 ± 0.00034 | 4.47e-05 ± 1.7e-05 |
| G41U U54G | 0.000782 ± 0.00031 | 0.000463 ± 0.00012 | 0.000458 ± 9.3e-05 | 0.00134 ± 0.00026 |  |  | 0.000133 ± 1.6e-05 |
| U55A C58A | 0.000722 ± 7.6e-05 |  | 9.44e-05 ± 2e-05 | 0.000254 ± 4.5e-05 | 4620 ± 800 | 0.000491 ± 7.2e-05 |  |
| U46G U54G | 0.0123 ± 0.0017 | 0.000596 ± 0.00017 | 0.00224 ± 0.0004 | 0.00479 ± 0.0013 | 3110 ± 510 | 0.0102 ± 0.003 | 0.000155 ± 2.6e-05 |
| U49A C70G | 1.43e-05 ± 3.7e-06 |  |  |  |  |  |  |
| A64C U65A | 2.96e-05 ± 5.1e-06 | < 1e-05 |  |  |  |  | < 1e-05 |
| G59U C68U | 1.5e-05 ± 6.2e-06 |  |  | 2.67e-05 ± 1.3e-05 |  |  | < 1e-05 |
| C61U C70G | 1.1e-05 ± 2e-06 |  |  |  |  |  |  |
| U46A A64G | 0.00469 ± 0.0011 |  | 0.000754 ± 0.00015 | 0.00242 ± 0.00047 | 2700 ± 990 | 0.00373 ± 0.00065 | 0.000102 ± 2.3e-05 |
| C34G U47G C58A C68A | 5.47e-05 ± 1.4e-05 | 6.99e-05 ± 1.7e-05 | 6.8e-05 ± 3.3e-05 | 6.86e-05 ± 2.9e-05 |  |  |  |
| C50A C61G C68G | 3.41e-05 ± 1.4e-05 |  | 6.76e-05 ± 1.9e-05 |  |  | 2.92e-05 ± 1.3e-05 |  |
| A64G C71U | 0.00692 ± 0.0014 | 0.000417 ± 4.5e-05 | 0.00177 ± 0.00015 | 0.00386 ± 0.00036 | 2040 ± 540 | 0.00552 ± 0.00084 | 0.000158 ± 1.6e-05 |
| U47G C50U A64C | 1.3e-05 ± 3.4e-06 |  |  |  |  |  |  |

| Variant | kcat [1] [s⁻¹] | self-cleavage kobs at 160 uM GlcN6P [2] [s⁻¹] | self-cleavage kobs at 640 uM GlcN6P [3] [s⁻¹] | self-cleavage kobs at 2500 uM GlcN6P [4] [s⁻¹] | KM [5] [µM] | self-cleavage kobs at 10000 uM GlcN6P [6] [s⁻¹] | self-cleavage kobs at 40 uM GlcN6P [7] [s⁻¹] |
| --- | --- | --- | --- | --- | --- | --- | --- |
| C16U G43A | 8.72e-05 ± 3e-05 |  |  | 2.82e-05 ± 1e-05 |  | 6.17e-05 ± 1e-05 | < 1e-05 |
| U45G U54A | 0.00862 ± 0.0024 | 0.000437 ± 0.00014 | 0.00206 ± 0.00071 | 0.00456 ± 0.0014 | 2110 ± 950 | 0.00721 ± 0.0012 | 0.000294 ± 6.7e-05 |
| A12C A53C | 0.00399 ± 0.0011 | 0.000285 ± 8.1e-05 | 0.000662 ± 0.00012 | 0.00223 ± 0.00038 | 2090 ± 920 | 0.00352 ± 0.00041 | 0.000109 ± 1.4e-05 |
| U56A C67G | 0.00221 ± 0.00081 | 0.000246 ± 2.7e-05 | 0.000684 ± 0.00015 | 0.000905 ± 0.00024 | 1310 ± 590 | 0.00313 ± 0.00047 | 6.73e-05 ± 6.8e-06 |
| A14G C58G | 0.00036 ± 0.00013 | 4.95e-05 ± 1.8e-05 | 7.22e-05 ± 2.1e-05 | 0.000115 ± 2.3e-05 |  | 0.000276 ± 3.5e-05 |  |
| A14G C58A | 0.00151 ± 0.00049 | 6.76e-05 ± 3.4e-05 | 0.000214 ± 2.3e-05 | 0.000448 ± 6.1e-05 | 4260 ± 2000 | 0.0012 ± 0.00014 | 2.97e-05 ± 1e-05 |
| C10G G51U C68U C70U | < 1e-05 |  |  |  |  |  |  |
| U31G U56A | 0.00739 ± 0.00043 | 0.000307 ± 0.00014 | 0.000903 ± 0.00017 | 0.00263 ± 0.0008 | 4370 ± 320 | 0.00519 ± 0.00083 | 6.8e-05 ± 9.6e-06 |
| U31A C50A | 1.34e-05 ± 6.2e-07 | < 1e-05 | < 1e-05 |  | 605 ± 190 |  | < 1e-05 |
| U49C C70G | 1.42e-05 ± 2.5e-06 |  |  |  |  | < 1e-05 |  |
| A52U U56G | 0.000175 ± 4.1e-05 |  | 2.83e-05 ± 1.1e-05 | 5.36e-05 ± 9.7e-06 | 5090 ± 2000 | 0.000122 ± 2.5e-05 |  |
| A53C C71A | 0.000797 ± 0.00016 | 6.89e-05 ± 1.5e-05 | 0.000254 ± 0.00011 | 0.000705 ± 0.00017 | 1610 ± 520 | 0.000613 ± 0.00013 |  |
| A6U U30A | 3.27e-05 ± 4.2e-06 | < 1e-05 |  |  |  | 2.86e-05 ± 1e-05 | < 1e-05 |
| G9A U54C | 0.000246 ± 5.5e-05 |  |  |  |  | 3.34e-05 ± 1.3e-05 |  |
| G29C G32U | 0.000823 ± 0.00021 |  |  | 0.000226 ± 6.2e-05 | 7540 ± 2900 | 0.000448 ± 0.00016 |  |
| C11U C58A | 5.6e-05 ± 2e-06 |  |  | 4.48e-05 ± 1.1e-05 | 753 ± 170 | 5.15e-05 ± 8.2e-06 |  |
